Reference: patent US6699677B1, “Tethered ligands and methods of use” (ChemoCentryx, Inc., priority 1999, dated 2004)

Experiments:
[1] = target: T1, CXCR4 (Homo sapiens, UniProt P61073); experiment: Binding of CXCR4-NSO cells to immobilized stalkokines
T1 construct: host or cells: mouse myeloma NSO
Procedure: In one set of experiments, five 8 well chamber slides (Lab-Tek II, Nalge Nunc International, Rochester, N.Y.), 250 ul of 10 ug/ml anti-his antibody (R&D Systems, Minneapolis, Minn.) in PBS was added to each well and incubated at room temperature overnight (typically 16 hours). Following, the liquid in each well was aspirated and washed once for approximately 5 minutes with 500 ul of PBS. The wells were then “blocked” (blocked for any additional protein binding sites) with the addition of 250 ul of blocking solution (2% fetal bovine serum, 0.5% BSA in PBS) and incubation for 1 hour at room temp (e.g., 20° C.). The liquid in each well was aspirated and 250 ul of supernatant containing the chemokine-stalk-immobilization domain fusion proteins (SDF1a-FRAC, finetaxin-FRAC, CCL27-FRAC, 1309-FRAC, MIP3a-FRAC, ELC-FRAC, SLC-FRAC, MDC-FRAC, TARC-FRAC, or BRAK-FRAC) or the control supernatant was added to two wells. Each slide contained two wells with control supernatant (from mock-transfected cells) and two wells with the positive control SDF1a (which binds the ubiquitous chemokine receptor CXCR4). The four other wells were for experimental samples. The supernatants were incubated for one hour at room temperature (typically 20° C.), then incubated for an additional hour at 37° C. […] The slide was then ready for addition of cells for assay. […]

[2] = target: T2, CCR10 (Homo sapiens, UniProt Q9NPB9); experiment: Spectrum of ligands that bind to CCR10; format: binding
T2 construct: Full length CCR10 expression constructs were made in pIRESpuro expression vector; expressed in transfected cells; HEK293-CCR10)
T2 sequence (Q9NPB9 1-350): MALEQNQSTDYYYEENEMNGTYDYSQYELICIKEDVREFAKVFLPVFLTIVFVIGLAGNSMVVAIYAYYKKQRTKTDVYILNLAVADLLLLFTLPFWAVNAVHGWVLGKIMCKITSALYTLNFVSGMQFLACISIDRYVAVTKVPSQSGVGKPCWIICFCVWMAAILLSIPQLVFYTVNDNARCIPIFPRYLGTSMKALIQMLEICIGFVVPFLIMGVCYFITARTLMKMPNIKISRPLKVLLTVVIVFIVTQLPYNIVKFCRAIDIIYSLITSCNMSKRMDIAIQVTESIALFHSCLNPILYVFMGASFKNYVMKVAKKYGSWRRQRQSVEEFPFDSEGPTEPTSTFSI
Description: Furthermore ELC-SK mediated adhesion was abolished in the presence of soluble native ELC as a competitor (FIG. 3A, top row). […] Moreover, radiolabeled ELC was used in a traditional homologous competition assay in the presence of increasing concentrations of unlabeled ELC. […] Taken together, the stalkokine-based adhesion and radiolabeled ligand binding/homologous competition assays indicate that CCR10 is a new chemokine receptor that bound a novel compliment of chemokines.

[3] = target: T3, CCR4 (Homo sapiens, UniProt P51679); experiment: Displacement of radiolabeled MDC or TARC tracer from CEM cells expressing CCR4; format: binding; set-up: endogenous in cells; host or cells: CEM cells; details: supernatants with soluble stalkokine, compared with control supernatant
T3 sequence (P51679 1-360): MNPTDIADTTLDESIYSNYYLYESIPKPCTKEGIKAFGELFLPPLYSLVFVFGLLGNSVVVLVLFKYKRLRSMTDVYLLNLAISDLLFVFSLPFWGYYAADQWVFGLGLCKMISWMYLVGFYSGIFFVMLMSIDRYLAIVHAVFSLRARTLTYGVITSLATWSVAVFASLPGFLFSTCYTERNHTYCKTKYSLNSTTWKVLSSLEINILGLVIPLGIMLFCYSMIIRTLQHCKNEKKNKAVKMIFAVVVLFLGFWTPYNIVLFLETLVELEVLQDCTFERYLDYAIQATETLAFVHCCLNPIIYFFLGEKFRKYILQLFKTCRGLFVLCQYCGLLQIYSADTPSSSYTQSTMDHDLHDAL
Procedure: Briefly, CEM cells we added to radiolabeled chemokine “tracer” (MDC or TARC) in the presence of competitor molecules such as supernatants expressing the soluble MDC-FRAC (a stalkokine with a fractalkine stalk and an MDC ligand domain) or TARC-FRAC (a stalkokine with a fractalkine stalk and an TARC ligand domain). The cells and tracer were incubated and harvested by filtration, capturing the bound tracer. The material was then counted. “Total” is the amount of tracer bound with no competition.

[4] = target: T3, CCR4; experiment: Calcium mobilization in INDO-1AM loaded CEM cells expressing CCR4; format: cell-based; set-up: endogenous in cells; host or cells: CEM cells; details: fusion protein supernatant added at 80 sec
Procedure: Briefly, CEM cells that express CCR4 were placed in a fluorimeter and monitored over time for changes in fluorescence. […] TARC-Fractalkine or MDC-Fractalkine (fusion protein supernatants), or control supernatants, were added at the following times: experiment 1, control supernatant added at 50 sec, TARK-FRAC at 80 sec; experiment 2, control supernatant at 50 sec and MDC-FRAC at 80 sec.

[5] = target: T3, CCR4; experiment: Binding of CCR4-NSO cells to immobilized stalkokines and competition by soluble chemokine; set-up: host or cells: mouse myeloma NSO
Procedure: Following, the liquid in each well was aspirated and washed once for approximately 5 minutes with 500 ul of PBS. The wells were then “blocked” (blocked for any additional protein binding sites) with the addition of 250 ul of blocking solution (2% fetal bovine serum, 0.5% BSA in PBS) and incubation for 1 hour at room temp (e.g., 20° C.). […] Each slide contained two wells with control supernatant (from mock-transfected cells) and two wells with the positive control SDF1a (which binds the ubiquitous chemokine receptor CXCR4). The four other wells were for experimental samples. The supernatants were incubated for one hour at room temperature (typically 20° C.), then incubated for an additional hour at 37° C. The supernatants were aspirated off, and each well was washed once for 5 minutes with 500 ul of PBS. The slide was then ready for addition of cells for assay.
Several types of cells were used in binding experiments to stalkokines of the invention, including transfected mouse myeloma NSO cells containing a mammalian expression vector driving expression of the receptor of interest, e.g., CCR1, CCR4, CCR6, CCR7, CCR8, CXCR4, CMV US28 (gift of R&D Systems (Minneapolis, Minn.)).
In an experiment, CCR4-NSO cells were used to test binding competition. Harvested CCR4 NSO cells were resuspended at 2×10^6 cells per ml in PBS. […] 250 ul of cells that were not pre-treated with soluble chemokine were added to additional wells. The slides were incubated for 1.5 hours at room temp, then the supernatant gently aspirated. The chamber portion of the slide was removed (using the apparatus provided by the supplier) and the slide was washed by gentle immersion into a petri dish containing PBS to a depth of 1cm. This was repeated 3 times in total, and the slide was immersed in a 1% glutaraldehyde solution (in PBS) for 5 minutes at room temperature. The cells were inspected and enumerated visually by microscopy.

[6] = target: T2, CCR10; experiment: Adhesion of HEK293-CCR10 cells to immobilized stalkokines, with or without soluble chemokine competitors; format: binding; details: stalkokine immobilized via anti-His anchoring antibody, 500,000 cells, 1.5 hrs at RT
Procedure: To determine ligand binding to CCR10, HEK293-CCR10 cells were used to interrogate chemokine “stalkokines” (SK), i.e., molecules in which discrete chemokine domains were engineered to be tethered to the end of an extended stalk structure. Stalkokines were interrogated using 8-well chamber slides coated first with anti-His anchoring antibody (10 ug/ml in PBS overnight at RT), which were washed and ‘blocked’ (2% FBS/0.5% BSA in PBS); treated with 250 ul of HEK293 cell stalkokine supernatants (1 hr at 37C), and incubated with 500,000 HEK293-CCR10 transfectants (1.5 hrs at RT). Inhibition of adhesion by competition with soluble chemokines was done by incubating cells with 5-10 ug/ml of recombinant chemokines. In all cases, nonadherent cells were removed by washing in PBS; remaining adherent cells were fixed with 1% glutaraldehyde, photoimaged and counted. As a primary screen, this adhesion would reveal putative receptor-ligand interactions.

T1 sequence (P61073 whole entry): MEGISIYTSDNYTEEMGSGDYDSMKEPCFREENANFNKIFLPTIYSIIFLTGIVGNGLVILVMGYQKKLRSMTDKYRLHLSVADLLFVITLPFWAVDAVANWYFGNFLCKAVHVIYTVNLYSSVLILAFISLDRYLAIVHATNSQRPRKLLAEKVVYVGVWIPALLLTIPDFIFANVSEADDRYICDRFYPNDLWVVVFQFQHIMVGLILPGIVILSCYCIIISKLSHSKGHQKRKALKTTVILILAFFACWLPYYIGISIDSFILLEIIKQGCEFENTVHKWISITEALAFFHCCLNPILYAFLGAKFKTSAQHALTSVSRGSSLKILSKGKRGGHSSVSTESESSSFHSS

B1: vMIPII: viral chemokine (protein)
chain: GDTLGASWHRPDKCCLGYQKRPLPQVLLSSWYPTSQLCSKPGVIFLTKRGRQVCADKSKDWVKKLMQQLPVTAR
Binding to Stalkokine form [1]: yes
Affinity of binding to CCR10 [2]: lower affinity

B2: TARC-FRAC: a stalkokine with a fractalkine stalk and an TARC ligand domain (protein)
chain: ARGTNVGRECCLEYFKGAIPLRKLKTWYQTSEDCSRDAIVFVTVQGRAICSDPNNKRVKNAVKYLQSLERSEFGGTFEKQIGEVKPRTTPAAGGMDESVVLEPEATGESSSLEPTPSSQEAQRALGTSPELPTGVTGSSGTRLPPTPKAQDGGPVGTELFRVPPVSTAATWQSSAPHQPGPSLWAEAKTSEAPSTQDPSTQASTASSPAPEENAPSEGQRVWGQGQSPRPENSLEREEMGPVPAHTDAFQDWGPGSMAHVSVVPVSSEGTPSREPVASGSWTPKAEEPIHATMDPQRLGVLITPVPDAQA
modifications: left off: small tags and cut ends
notes: a stalkokine with a fractalkine stalk and an TARC ligand domain
Inhibition of binding of MDC or TARC tracer to CEM cells [3]: significant further decrease
Calcium influx / calcium signaling [4]: modest influx
Calcium influx / calcium signaling ([4]; listed as TARC-Stalkokine): induction of calcium signaling
Binding to Stalkokine form [5]: bound

B3: MDC: recombinant human chemokine, natural ligand for CCR4 (protein)
chain: GPYGANMEDSVCCRDYVRYRLPLRVVKHFYWTSDSCPRPGVVLLTFRDKEICADPRVPWVKMILNKLSQ
Inhibition of binding of MDC or TARC tracer to CEM cells [3]: maximal level of competition
Binding to Stalkokine form [5]: yes, yes

B4: ELC-SK: tethered ligand fusion protein: ELC chemokine domain, human fractalkine mucin stalk, myc/poly-histidine immobilization domain (protein)
chain: GTNDAEDCCLSVTQKPIPGYIVRNFHYLLIKDGCRVPAVVFTTLRGRQLCAPPDQPWVERIIQRLQRTSAKMKRRSSEFGGTFEKQIGEVKPRTTPAAGGMDESVVLEPEATGESSSLEPTPSSQEAQRALGTSPELPTGVTGSSGTRLPPTPKAQDGGPVGTELFRVPPVSTAATWQSSAPHQPGPSLWAEAKTSEAPSTQDPSTQASTASSPAPEENAPSEGQRVWGQGQSPRPENSLEREEMGPVPAHTDAFQDWGPGSMAHVSVVPVSSEGTPSREPVASGSWTPKAEEPIHATMDPQRLGVLITPVPDAQA
modifications: left off: small tags and cut ends
Adhesion of HEK293-CCR10 cells to immobilized stalkokine [6]: adhered very well
Adhesion of HEK293-CCR10 cells to immobilized stalkokine ([6]; listed as ELC-stalkokine (SK)): strong adhesion

B5: FK: fractalkine, natural membrane protein with a chemokine domain tethered on a long mucin-like stalk (protein)
chain: QHHGVTKCNITCSKMTSKIPVALLIHYQQNQASCGKRAIILETRQHRLFCADPKEQWVKDAMQHLDRQAAALTRNGGTFEKQIGEVKPRTTPAAGGMDESVVLEPEATGESSSLEPTPSSQEAQRALGTSPELPTGVTGSSGTRLPPTPKAQDGGPVGTELFRVPPVSTAATWQSSAPHQPGPSLWAEAKTSEAPSTQDPSTQASTASSPAPEENAPSEGQRVWGQGQSPRPENSLEREEMGPVPAHTDAFQDWGPGSMAHVSVVPVSSEGTPSREPVASGSWTPKAEEPIHATMDPQRLGVLITPVPDAQA
Binding to Stalkokine form [1]: yes

B6: MDC-FRAC: a stalkokine with a fractalkine stalk and an MDC ligand domain (protein)
chain: GPYGANMEDSVCCRDYVRYRLPLRVVKHFYWTSDSCPRPGVVLLTFRDKEICADPRVPWVKMILNKLSQEFGGTFEKQIGEVKPRTTPAAGGMDESVVLEPEATGESSSLEPTPSSQEAQRALGTSPELPTGVTGSSGTRLPPTPKAQDGGPVGTELFRVPPVSTAATWQSSAPHQPGPSLWAEAKTSEAPSTQDPSTQASTASSPAPEENAPSEGQRVWGQGQSPRPENSLEREEMGPVPAHTDAFQDWGPGSMAHVSVVPVSSEGTPSREPVASGSWTPKAEEPIHATMDPQRLGVLITPVPDAQA
modifications: left off: small tags and cut ends
notes: a stalkokine with a fractalkine stalk and an MDC ligand domain
Inhibition of binding of MDC or TARC tracer to CEM cells [3]: significant further decrease
Calcium influx / calcium signaling [4]: modest influx
Calcium influx / calcium signaling ([4]; listed as MDC-Stalkokine): induction of calcium signaling
Binding to Stalkokine form [5]: bound
